These substances were tested against HLA-A*02:01 (Homo sapiens, UniProt P04439, D140Y/D185E/D98H/E176V/E277Q/G131W/G231S/I119V/I121R/I166T/I218V/L300P/L318F/N151K/N90K/P208A/P217A/Q86G/Q94H/R138H/R169H/T345S) (assay: MHC binding assay (UV-ligand exchange, anti-β2m ELISA, peptide exchange yield)). Settings: binding to HLA-A*02:01.
In short: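 Peptide-MHC complexes formed by UV-ligand exchange, cleaving a UV-sensitive placeholder peptide in favour of the test peptide. Exchange yield measured by ELISA: monomers diluted 100-fold onto streptavidin-coated plates, 1 h 37 °C, detected with 2 ug/ml HRP anti-β2m and TMB, absorbance at 450 nm.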

Substance | Peptide exchange (MHC class I binding score, peptide exchange yield)
455 (SLLKEPQKVQL; listed as Homo sapiens) [compound 455] | “++” (>20% = ++)
456 (LLIGHLERV; listed as Homo sapiens) [compound 456] | “+++” (>50 = +++)
459 (ALITEVVRL; listed as Homo sapiens) [compound 459] | “++” (>20% = ++)
464 (ALNDCIYSV; listed as Homo sapiens) [compound 464] | “+++” (>50 = +++)
465 (QLCDLNAEL; listed as Homo sapiens) [compound 465] | “+++” (>50 = +++)
466 (VLIANLEKL; listed as Homo sapiens) [compound 466] | “++++” (>75% = ++++)
468 (YLRSVGDGETV; listed as Homo sapiens) [compound 468] | “+++” (>50 = +++)
471 (YLYNNMIAKI; listed as Homo sapiens) [compound 471] | “+++” (>50 = +++)
473 (AMATESILHFA; listed as Homo sapiens) [compound 473] | “+++” (>50 = +++)
474 (YLDPALELGPRNV; listed as Homo sapiens) [compound 474] | “+++” (>50 = +++)
476 (ALMERTGYSMV; listed as Homo sapiens) [compound 476] | “+++” (>50 = +++)
477 (ALLPASGQIAL; listed as Homo sapiens) [compound 477] | “+++” (>50 = +++)
479 (SLFGNSGILENV; listed as Homo sapiens) [compound 479] | “+++” (>50 = +++)
480 (ALLEDSCHYL; listed as Homo sapiens) [compound 480] | “+++” (>50 = +++)
481 (GLIEDYEALL; listed as Homo sapiens) [compound 481] | “+++” (>50 = +++)
484 (SLIEKVTQL; listed as Homo sapiens) [compound 484] | “+++” (>50 = +++)

Now from value to substance:

Peptide exchange (MHC class I binding score, peptide exchange yield) | Substance
“+++” (>50 = +++) | 452 (ILLEHGADPNL; listed as Homo sapiens) [compound 452]
“++” (>20% = ++) | 453 (KLLEATSAV; listed as Homo sapiens) [compound 453]
“+++” (>50 = +++) | 457 (SLLPGNLVEKV; listed as Homo sapiens) [compound 457]
“++” (>20% = ++) | 458 (SLIDKLYNI; listed as Homo sapiens) [compound 458]
“++” (>20% = ++) | 461 (VMFRTPLASV; listed as Homo sapiens) [compound 461]
“+++” (>50 = +++) | 462 (KLAKQPETV; listed as Homo sapiens) [compound 462]
“+++” (>50 = +++) | 467 (FLAKDFNFL; listed as Homo sapiens) [compound 467]
“+++” (>50 = +++) | 469 (YLASDEITTV; listed as Homo sapiens) [compound 469]
“+++” (>50 = +++) | 472 (KLLEVSDDPQV; listed as Homo sapiens) [compound 472]
“+++” (>50 = +++) | 475 (LLLNEEALAQI; listed as Homo sapiens) [compound 475]
“+++” (>50 = +++) | 478 (YLLHEKLNL; listed as Homo sapiens) [compound 478]
